According to patent publication US20260167677A1, “ANTI-ADAM10 ANTIBODIES AND USES IN TREATMENT OF CANCER” (Memorial Sloan Kettering Cancer Center, priority 2022, published 2026):

System: human APP
Test: Western blot of APP shedding in U2OS cells transfected with human APP
Type: cell-based
Conditions: 31 nM to 1 μM
Experimental: U2OS cells transiently transfected with human APP releases the extracellular portion of APP to the media.
The release of sAPPα in the presence of varying concentrations of IHigG/Fab (31 nM to 1 μM) was evaluated using Western blotting. The Western blots were quantitated using the software Image J and glyceraldehyde 3-phosphate dehydrogenase (GAPDH) as loading control. A vector control was included and U20S cells transfected with APP, but untreated, was used to calculate the fold increase in shedding.

B1: 1H5 Fab: Fab fragment of fully human anti-ADAM10 antibody 1H5 (antibody)
heavy: QVQLVESGGGLVKPGGSLRLSCAASGFTFSDYYMSWIRQAPGKGLEWVSYISSSGSTIYYADSVKGRFTISRDNAKNSLYLQMNSLRAEDTAVYYCARDFYDSKIFDYWGQGTLVTVSSASTKGPSVFPLAPSSKSTSGGTAALGCLVKDYFPEPVTVSWNSGALTSGVHTFPAVLQSSGLYSLSSVVTVPSSSLGTQTYICNVNHKPSNTKVDKKVEPKSCDKT
light: DIQMTQSPSSLSASVGDRVTITCRASQSISSYLNWYQQKPGKAPKLLIYAASSLQSGVPSRFSGSGSGTDFTLTISSLQPEDVGVYYCMEGLKTPFTFGPGTKLEIKRTVAAPSVFIFPPSDEQLKSGTASVVCLLNNFYPREAKVQWKVDNALQSGNSQESVTEQDSKDSTYSLSSTLTLSKADYEKHKVYACEVTHQGLSSPVTKSFNRGEC
sAPPα shedding: increase
